Reference: the Human Domainome abundance scans (Beltran et al. 2025)

B1: Gamma-crystallin D, residues 90 to 170; numbered along this chain, P07320 (parent)
chain: IRLYEREDYRGQMIEFTEDCSCLQDRFRFNEIHSLNVLEGSWVLYELSNYRGRQYLLMPGDYRRYQDWGATNARVGSLRRV

Variants of: B1
Assay: abundance fitness (aPCA) (normalised: wild type 0, dead -1); higher = more abundant; growth selection in yeast, the domain comes from the species named
Settings: Homo sapiens

Abundance fitness of substitutions, site by site:
L57: D -0.971, H 0.049, R -0.376, F -0.194, K -0.173, C -0.029, T -0.016, A -0.071, E -0.91, W -0.623, Y -0.13, M 0.029
W68: F 0.194, I 0.116, D 0.062, A 0.043
Y50: D -0.693, A -0.493, N 0.003, G -0.231, C -0.44, H -0.052, W -0.283, I -0.658, M -0.144, S -0.501, Q -0.197, K -0.234, V -0.979, R -0.19, L -0.383
N49: Q 0.015, E 0.054, T -0.561, G -0.074, F -0.135, R -0.107, P -0.182, S -0.09, M 0.008, A -0.109, K -0.086, L 0.045, Y -0.03, I -0.485
R53: S 0.059, Q 0.085, E -0.046, A 0.068, H 0.062, K 0.038, P 0.039, V -0.056, M -0.045, C -0.137, I -0.158, Y 0.026, G 0.015, W -0.266
Q54: R -0.066, C -0.206, K -0.052, L -0.149, Y -0.119, M -0.261, S 0.013, G -0.203, E 0.018, D 0.007, H -0.117, T 0.035, A -0.119, P -0.036, I -0.245, V -0.193, W -0.39
Y65: N 0.096, C -0.144, M 0.089, S 0.041, E 0.192, L 0.093, W 0.005, F -0.174, Q -0.028, G 0.159, K -0.113, D 0.044, T -0.076, V -0.047, P 0.051, A -0.093, I 0.053, H 0.099
P59: E -0.005, I -0.157, R -0.088, C 0.011, G 0.065, Y -0.222, H -0.052, Q 0.05, D 0.14, L -0.085, K -0.118, S -0.007, A 0.088, N -0.027, M -0.037, W -0.083, V -0.099, F -0.353
L56: V -0.027, E -0.024, Y -0.207, N 0.022, H 0.13, C 0.048, K 0.035, F 0.093, T 0.129, R 0.086, A 0.056, G 0.016, P 0.124, M 0.279, S 0.14, I 0.114, W 0.017, Q -0.054, D 0.294
R51: L 0.034, E 0.158, S -0.039, A -0.024, P -0.951, V 0.025, I -0.321, K -0.037, T 0.056, W -0.471, Q -0.132, D -0.027, N 0.139, Y -0.108, H -0.122, G 0.064, F -0.147, C -0.023
L47: Q 0.084, R 0.055, V -0.142, P -0.989, M -0.162, N -0.014, S 0.074, W 0.048, Y -0.183
D61: N -0.016, F -0.094, K -0.096, M -0.008, H -0.25, I -0.332, Q -0.038, V -0.07, T -0.024, L -0.093, G 0.004, E 0.043, S -0.027, R -0.109, W -0.237
Y62: F -0.147, W 0.026, R 0.229, E -0.401, C 0.264, D -0.904, A 0.153, I -0.061, L 0.178, K 0.11, V 0.041, S 0.016, P -0.919, H -0.076, M 0.096, T -0.251, Q -0.301, N -0.125, G -0.242
Y55: K 0.087, F -0.044, C -0.061, S 0.126, T 0.187, H -0.018, R 0.014, I 0.298, M -0.039, D -0.23, V 0.082, G 0.017, P -1.07, Q -0.006, L 0.107, W -0.001, E 0.241
G60: F -0.188, E 0.155, R -0.04, Q 0.001, D -0.08, P -0.702, T -0.122, Y -0.176, M -0.128, K 0.029, H -0.225, A -0.038, N -0.167, L -0.197, S 0.064, W -0.133
D67: Q -0.08, A -0.101, W -0.064, S -0.005, M 0.047, F -0.062, Y -0.125, V -0.043, P -0.19, H -0.034, E 0.049, R -0.208, I -0.155, C -0.148, L -0.084
S48: Q -0.191, L -0.204, R -0.14, Y -0.194, I -0.152, D 0.138, M -0.166, T -0.134, V -0.159, G -0.049, K -0.017, C 0.009, E 0.208, F -0.124
R64: F 0.04, D 0.167, N 0.159, C -0.141, T 0.063, Y 0.035, W 0.095, P -0.423, E -0.226, M -0.11, Q -0.031, V -0.044, K -0.287, A -0.019, G -0.017
Q66: R -0.06, F -0.004, C -0.067, E -0.022, V -0.038, G 0.038, M -0.048, T -0.073, N -0.074, D -0.14, S 0.018, W 0.018, K 0.269, H 0.108, P -0.016
R63: P -0.012, Q 0.072, K 0.061, T 0.039, F 0.004, M 0.132, S -0.037, N -0.079, A 0.024, L 0.088, I 0.113, W 0.031, C 0.097, E 0.09, D 0.129
G52: M -0.57, V -0.919, Q -0.599, A -0.489, R -0.51, I -0.943, C -0.421, F -0.583, T -1.07, D -0.775, L -0.432, E -0.493, N -0.705, W -0.697, H -0.43, K -0.849, S -0.389
M58: C 0.074, S 0.055, L 0.015, V 0.032, H 0.008, G 0.093, T 0.125, W -0.118, A 0.032, Q 0.066, P 0.201, I -0.047, R -0.02, F -0.073, D 0.021, N 0.037, Y 0.174, E 0.043
